The nature of this data set: label from the status in PepcDB records.
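Further: failed if final PepcDB status was selected cloned or expressed and not failed if soluble or beyond.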

For the sequence “MTTPSHLSDRYELGEILGFGGMSEVHLARDLRLHRDVAVKVLRADLARDPSFYLRFRREAQNAAALNHPAIVAVYDTGEAETPAGPLPYIVMEYVDGVTLRDIVHTEGPMTPKRAIEVIADACQALNFSHQNGIIHRDVKPANIMISATNAVKVMDFGIARAIADSGNSVTQTAAVIGTAQYLSPEQARGDSVDARSDVYSLGCVLYEVLTGEPPFTGDSPVSVAYQHVREDPIPPSARHEGLSADLDAVVLKALAKNPENRYQTAAEMRADLVRVHNGEPPEAPKVLTDAERTSLLSSAAGNLSGPRTDPLPRQDLDDTDRDRSIGSVGRWVAVVAVLAVLTVVVTIAINTFGGITRDVQVPDVRGQSSADAIATLQNRGFKIRTLQKPDSTIPPDHVIGTDPAANTSVSAGDEITVNVSTGPEQREIPDVSTLTYAEAVKKLTAAGFGRFKQANSPSTPELVGKVIGTNPPANQTSAITNVVIIIVGSGPATKDIPDVAGQTVDVAQKNLNVYGFTKFSQASVDSPRPAGEVTGTNPPAGTTVPVDSVIELQVSKGNQFVMPDLSGMFWVDAEPRLRALGWTGMLDKGADVDAGGSQHNRVVYQNPPAGTGVNRDGIITLRFGQ”, the protein production entry was “failed”. Regarding “MTTSGERRVAGLAMIGSAACWGSATVMSRDLLVSMTSIQLLLVQLMASVCVLLALAAPRFPWTYRSREMTKGALCGVLEPGLAYVVGLAGLAQTTAGRASIISASEPVLIVLVAWVLFNQRPGLRLMAAIAIAVGGLVLVSWSPVVEDRGGAFRGDMMVVLATLFAAGYVVISSRIVGSFPAASLASGQQMVGLAFAMLVYAGAMAHGDDMGGFGAIPGGTLAYAALSGVVQYALAFWLYLIGLRYLSAGAAGLWLTLIPVFGLAGAWLWLGERPGLLTVLGAIVIVSAVVLGNRGGTE”, the protein production entry is “failed”. Next, “MTTSIQRRISIVIPCLNDAVLLEQCLSSIVAQTLQPEEVIVVDNGSTDNSVEVANRMGARVVHEPLQGITWASAAGYNSARGDLIVRFDADCVIPPDHLSQVNAIWNRTEETPGRTIVALTGTGSFDIPGRMGEWLALCYLGAYRWSTKQALGHYPIFGSNSVISRQWWEDVKDQITLSETFVHEDMYFSFFVRPHETVWFEKNLKLIMHPRALMGVRQSFIRLVRGFYTIKIAWKREPVHQRLESRRDWTLEHHHHHH”: “failed”. With “MTTTASQEAFLQAFHAEYPAVTAEAFGRGHAPDGRSSYEILCDRVAGSMRVLDLGCGDGLLLEFLARRSGRQLAGVDLSPHSLALARRRPALSEAKLEEGRAQELPFADDSFDACVSHMALMLMSEIEQVASEVARVLSPGGVLACVVGGGAVGGEAYERFLALLRCTIEETPASQRIPALGDKRTRSREGLDEVLGPAGFTAVDWETVPIDLSAPGEQVWAAVSSLYDLGPLDRATLDRLREAFFAEVRDMTTSEGHVPCAFKIHLATARLR” the entry was “failed”; with “MTTTIEVGMLGLGTVGSGVVERLTRSAAKIEQTQGIRLHLAAVAVNHLNAPRTVQLPIGTRLTDSLTNVVCDRKIQLVIEVMGTVATAKKAIVAALNQGKAVVTANKDLIATAGPELAALAKKQGCDLFYEASVAGGIPILRTLTDSYVTDNVQAVSGIINGTANYMLSAMATGQSYEQALATAQATGYAEADPTNDVAGIDAAYKLMILSRFAFGQELSLPQIAPTGITHLSASVCRLAAENGWQIKLLAQIQRHGSGLYCRVAPVAVPVDQPLSQINGVQNAVAVQSEAIGTSLYTGPGAGSTATANSVLNDVLVAAKHLINGYRMIRNQKRSVSLTVTRFDQLPQTYLGIGPVAPEAVKYYANEADFSVKTIADDCYQITGLSAVKRKKLRANLPLTLIPIAGTTDWKQVTENSITSPINVAILEHHHHHH”, “not failed”. Next, “MTVANWQVRDLTLILRTGEMQSRLEQARTDFGALLPETVYFQPSAIRLGEFDDEYILTRQELVYVYLREDIARQCALRRHLPSNSSNSGIMATAIPPWLMDARRLNRVMQERCDQGGLVHYYQGPHTNQFFLAIMPSNCFVRFGTDVINNENYGFYARGGNYTEEGEDDDDEMDDEDETGGAETRDSQTGNLINYPIIALGSCHLSALEHHHHHH”: “not failed”; “MTVDPASHITIPEADLARLRHCNHHDPHGFYGWHETEAGSVIRTRQVGATQVNLLIDDTSHVMTPIGDDIFAIDLGHRERADYRLEVTWPDQEPQVKADPYYFLPTVG”: “not failed”.

Take “MTVGQVLRSYPQTVQTFLELGMHCLGCPSSTMESIEGAALTHGKKPDELVEKLNKVIAANLEHHHHHH”: the protein production entry is “failed”. “MTWTNVLAMLVWTGASAVLLFAIMWVDSIFTKYNDLKEIKNGNTAVTTRFVMKLFAQGYILSQSITKANDLWQALLASAVSFVILLVVEMFIEFVLKKMAGLDLEEGTKEGSVAHAMLAGSLHIVGALILGACL”: the protein production entry is given as “failed”. With “MTYEAFVELVERLWEEVPEDFKRGLQGVHVFPEAKPEPGLEGVWRLGEYLDPGPPSAFGGFEDLGRHIALYYGSFLEVAGEGFDWEAEVWETLLHELRHHLESLAGRDDLVQEDLRRLDAFRRGGPSGEG” the entry was “not failed”; with “MTYELSTDREFDLIAIGRACIDLNAVEYNRPMEETMTFSKYVGGSPANIVIGSSKLGLKAGFIGKIADDQHGRFIESYMRGVGVDTSNLVVDQEGHKTGLAFTEIKSPEECSILMYRQDVADLYLSPEEVNEAYIRRSKLLLVSGTALSKSPSREAVLKAIRLAKRNDVKVVFELDYRPYSWETPEETAVYYSLVAEQSDIVIGTREEFDVLENRTEKGDNDETIRYLFKHSPELIVIKHGVEGSFAYTKAGEAYRGYAYKTKVLKTFGAGDSYASAFLYALISGKGIETALKYGSASASIVVSKHSSSDAMPSVEEIEALIEKDETITIA”, “not failed”; with “MTYLETAAQFYSEVAQTPQVGLCCVQSTPLQLPGLKIPLPMQEMNYGCGTTVHPTELGKQPTVLYVGVGGGLEALQFAYFSRRPGAVIAVEPVAAMREAAARNLEMALTDNPWFDSSFVEIREGDAFNLPVADGSVDIVAQNCLFNIFEPEDLTRALKEAYRVLKPGGRLQMSDPIATSPVPAHLQQDERLRAMCLSGALTYEEYTQRIIDAGFGQIEIRARRPYRLLDSQTYNLETHLLLESLDSVSFKVPMPEDGACIFTGRTAIYAGCDAFFDDKAGHILQRGIPATVCDKTAAKLATVKPKEVIITDSTWHYNGGGCCLEHHHHHH”, “not failed”.

Consider “MVADESITVTVEVKNTGVVAGAEVVQLYLHDKKASVSRPIKELKGFAKVYLAPGESKRVSISLNKRDLSFWDVHTNDWLAEVGEFEVLLGTSLDNIRQKATFTYQNKYEQLEHHHHHH”, for which the protein production entry is given as “failed”. With “MVAHSLVPLSPAAHAARLSSPSPRSLPQAPPVVLAVPPINRRTILVGLGGALWSWNALAAKEEAMAAARRPPPPPPKEKKDPTVTGVQAKVLASKKRKEEMKASIAKLREKGKPVVEAKPSSSSSE” the entry was “failed”; with “MVASAPASAGTKGVIRQVIGPVLDVEFPAGKLPKIYNALRVETKNTAGQDVALTAEVQQLLGDHRVRAVAMSGTDGLVRGMEIADTGAPISVPVGEATLGRIFNVLGEPVDEQGPVNASATAPIHRDAPNLTELETKPKVFETGIKVIDLLAPYRQGGKVGLFGGAGVGKTVLIQELINNIAKEHGGVSVFGGVGERTREGNDLYEEFKESGVINADDLSKSKVALCYGQMNEPPGARMRVGLSALTMAEHFRDVNKQDVLLFVDNIFRFVQAGSEVSALLGRMPSAVGYQPTLGTDVGALQERVASTVEGSITSIQAVYVPADDLTDPAPATTFAHLDATTVLNRALASKGIYPAVDPLDSTSTMLQPAVVGDEHYRTARLVQSTLQRYKELQDIIAILGLDELSEDDRQTVDRARKVEKFLSQPFFVAEIFTGMPGKYVKLEETIAGFNQILAGELDHLPEAAFYLVGSIEEAKAKAEKIAAETK”, “failed”. With “MVCVDFIDQKVYSEAEGLFVSDLDLGIKGLIRARYPFALDSDFISYGNLSHYCMNYLDEIVQRANQKNEKIKYNVTTLMKEEEKPFNVEERLNKQATIGQRIADDVARFGGSWTFIIVFVSIMAIWMLVNIMKPFGIQFDPYPFILLNLALSTIAAIQAPLIMMSQNRAADYDRLQARNDFNVNKTSELEIRLLHEKIDHMVQQDQFELLEIQKLQTEMLVSLGNQLAQLKQLQK”, the protein production entry is given as “failed”. “MVDDRFNHFRIINRVLEKGMPVLTPVSVAIGVWMAERFSNFASAVPWLFAVISFVGALGLTLVDIRERLRRPQAMIVTLFILQILMPLIALLVGMWLFDPMTRSGLVLAFSIPTGVMSLMWVTIYHGNKSFALAVVFIHTLLSPFFIPWTLRWFIGTDIPFDVGGMVWGLLWMIVIPSLLAISATRYTPKVVPMMKDVLSPIAKLHLFLIIMINSSVAAPFIRSWDLSLLYIILTVLAIALSGYGLGYVGARLLKLDESMRISMVYTCGMRNIGAGAALAVAYFPPPVMVPIVAAILFQQVLAAALGKWMRTGRTDQSLIERGTT”: the protein production result is listed as “failed”. With “MVDGEVEILRGYELRLLRCTVSFPQTGSPLESQPLDGTQSGTHPHDSLITSLLSSIEAGDYLGALSSDATKLILGDSELNLVDTVDSAEQVYSELLDKVESFVVNDSSDEIDKARRAVLVMCLAIATALWFTRCNLTGSTEGSTKCSLPLRVSESKELVEWENWAKIQLMSVGSDLLGKFSNLQHLVFARLLLFKLKDLLFEITSTETFEVRSISWWLVRVLLIHQRVLQERSSSLFEMLQVYMAEAIDHFGELEKVKSYWGANLLEDEASSITSTIHLEACVLQYIYGRIDPSRLQLESAKAAASLEFSVTGALGFRTIHQVDPKAQMVLVANTSSSNGDVRLASEKADVGPYEAWGGEAPEVYMTPKLVNNESEAGKDSVPLKPVEQALILAQCLLIERGSRHDEMQRWDMAPYIEAIDSQKSTYFVLRCFCDLLRVRWESTRGRTKGRALEMMDKLVGAINKSDPGVSNRIPLCYAVHLPTIPALRKEYGELLVSCGLVGEAITIFESLELWDNLIYCYCLLGKKSAAVDLINARLLERPNDPRLWCSLGDVTINDSCYEKALEVSNDKSVRAKRALARSAYNRGDFEKSKMLWEAAMALNSLYPDGWFALGAAALKARDVQKALDAFTFAVQLDPDNGEAWNNIACLHMIKKKSKESFIAFKEALKFKRDSWQMWENFSHVAMDVGNIDQAFEAIQQILKMSKNKRVDVVLLDRIMTELEKRNSACKSSSSSTETEASSDESTETKPCTATPAETQRQLELLGKVIQQIVKTESTAEIWGLYARWSRIKGDLTVCSEALLKQVRSYQGSEVWKDKERFKKFARASLELCRVYMEISASIGSKRELFTAEMHLKNTIKQATVSFLDSEELKELESCLEEVRNVMQKSEEEYRDTKT” the entry was “failed”. For “MVDTNHKIAFCIDSDGCAMDTMTYKHQLFFGPIAADIFGISEQERTSFLKEWDRVNLYSRTRGVNRFVGLVMGLEFAGVEHIDKLKEWVETTDSLSNNSLELALANDFSRDLEKALEWSNEVNRQIKNYEGDSLAFSGVLESLERLSQFGNVYVVSSANKEAVWQEWEEQGLLKYVDDIYCQDRGKKEDVIATLIASGYCRETILMVGDSLGDLAAAEQNGIAFYPVLVGKEVKSWEILREDIGEAFAKGQFEQQRQKESINTFWANLDN”, the protein production entry was “failed”.

For the sequence “MVEASFGYEDFIVRMATGLLVGALIGIERERAQLVGKSEKSGSIPGFRSMGFMGLYGSATGYVSSYTASQYGVVFAALIAGLGAATITLLTLLFAYTRMIRLRAMGFTTYVVILLTFVAGLMSGMGLILEGVAVGVIGGLLLASKYPVVRMTRSVSYSELIALMEVAALILVLGPAVYYAGGYIPFIDVFQVYIFFTAIVAVSFTSYIASRIWGVRGFVTSIILGSIVNSEAVVASIASRRDIDRGVVFQAVVAALSVMQLRIAGLGLLALLVGGGFPQGEVVLHFRDNILPWLILLALMTIASIVAWASTLALEKVENKGVIPGTPLQWGVAVRGAVAFLLLTLLFDAASRALSGYTGNIAFLTLSIIGGFISANATLLSLAGLLTRLGADTFTVGILGIALGATFNKILYTRAVGAPPETVKEITKATALMSLLPVFFLILFWLLLQTPTG”, the protein production entry is recorded as “failed”.
